Assay results published in patent US10941182 (Amgen, dated 2021).
Starred links: 1 amine or outer side, 2 acyl side, 3 side chain; linkers in the order of their positions; H or OH if unused. Non-standard residues stand in square brackets, D forms with d. *: point of attachment. AC4Abu = α-carboxy-4-aminobutyric acid, O=C(C(CCN[*:1])C(=O)[*:3])[*:2]; Oic = O=C(O)[C@@H]1C[C@@H]2CCCC[C@@H]2N1; Phe(4-Cl) = N[C@@H](Cc1ccc(Cl)cc1)C(=O)O; γGlu = O=C(O)[C@H](CCC(=O)[*:2])N[*:1]; 2Nal = N[C@@H](Cc1ccc2ccccc2c1)C(=O)O; NMehArg = CN[C@@H](CCCCNC(=N)N)C(=O)O; NMeR = CN[C@@H](CCCNC(=N)N)C(=O)O; Tridecanoyl = CCCCCCCCCCCCC(=O)*; Cha = N[C@@H](CC1CCCCC1)C(=O)O; Nle = CCCC[C@H](N)C(=O)O; AEEA = NCCOCCOCC(=O)O; Aib = CC(C)(N)C(=O)O; βAla = NCCC(=O)O

T1: human APJ receptor (human, UniProt P35414 1-380)
T1 sequence (looked up): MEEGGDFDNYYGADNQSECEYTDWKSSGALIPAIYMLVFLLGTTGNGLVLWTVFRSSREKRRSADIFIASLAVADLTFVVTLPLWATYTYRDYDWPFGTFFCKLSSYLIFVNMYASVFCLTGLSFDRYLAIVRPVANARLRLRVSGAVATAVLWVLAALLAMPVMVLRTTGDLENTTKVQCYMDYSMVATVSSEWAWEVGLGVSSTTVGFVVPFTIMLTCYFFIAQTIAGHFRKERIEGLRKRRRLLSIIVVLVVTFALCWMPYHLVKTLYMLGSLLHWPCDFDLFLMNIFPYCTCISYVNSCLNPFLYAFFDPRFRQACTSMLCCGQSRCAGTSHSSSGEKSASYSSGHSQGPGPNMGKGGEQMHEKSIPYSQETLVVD

T2: rat APJ receptor (rat, UniProt Q9JHG3 1-377)
T2 sequence (looked up): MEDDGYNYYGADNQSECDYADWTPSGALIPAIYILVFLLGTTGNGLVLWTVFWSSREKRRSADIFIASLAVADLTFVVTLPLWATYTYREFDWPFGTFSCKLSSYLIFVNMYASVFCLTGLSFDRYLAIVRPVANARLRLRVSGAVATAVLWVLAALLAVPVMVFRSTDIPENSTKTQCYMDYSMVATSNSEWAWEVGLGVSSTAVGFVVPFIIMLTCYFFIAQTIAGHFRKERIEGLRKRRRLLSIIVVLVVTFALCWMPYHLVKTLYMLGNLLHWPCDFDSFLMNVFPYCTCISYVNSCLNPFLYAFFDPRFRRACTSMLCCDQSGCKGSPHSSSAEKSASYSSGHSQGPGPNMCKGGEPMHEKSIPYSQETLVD

B1: Apelin polypeptide SEQ ID NO: 435 (peptide)
peptide: Tridecanoyl-[γGlu][AEEA][AEEA]Q[dR]P[NMehArg][Cha]SHKGP[Nle]P[Phe(4-Cl)]-OH
SMILES: CCCCCCCCCCCCC(=O)N[C@@H](CCC(=O)NCCOCCOCC(=O)NCCOCCOCC(=O)N[C@@H](CCC(N)=O)C(=O)N[C@H](CCCNC(=N)N)C(=O)N1CCC[C@H]1C(=O)N(C)[C@@H](CCCCNC(=N)N)C(=O)N[C@@H](CC1CCCCC1)C(=O)N[C@@H](CO)C(=O)N[C@@H](Cc1c[nH]cn1)C(=O)N[C@@H](CCCCN)C(=O)NCC(=O)N1CCC[C@H]1C(=O)N[C@@H](CCCC)C(=O)N1CCC[C@H]1C(=O)N[C@@H](Cc1ccc(Cl)cc1)C(=O)O)C(=O)O
B2: Apelin polypeptide SEQ ID NO: 402 (peptide)
peptide: Tridecanoyl-[AC4Abu][AEEA][AEEA]QRP[NMeR]LSHKGP[Nle][Phe(4-Cl)]-OH
SMILES: CCCCCCCCCCCCC(=O)NCCC(C(=O)O)C(=O)NCCOCCOCC(=O)NCCOCCOCC(=O)N[C@@H](CCC(N)=O)C(=O)N[C@@H](CCCNC(=N)N)C(=O)N1CCC[C@H]1C(=O)N(C)[C@@H](CCCNC(=N)N)C(=O)N[C@@H](CC(C)C)C(=O)N[C@@H](CO)C(=O)N[C@@H](Cc1c[nH]cn1)C(=O)N[C@@H](CCCCN)C(=O)NCC(=O)N1CCC[C@H]1C(=O)N[C@@H](CCCC)C(=O)N[C@@H](Cc1ccc(Cl)cc1)C(=O)O
B3: Apelin polypeptide SEQ ID NO: 425 (peptide)
peptide: Tridecanoyl-[γGlu][AEEA][AEEA]QRP[NMeR]LSHKGP[Nle][βAla][Phe(4-Cl)]-OH
SMILES: CCCCCCCCCCCCC(=O)N[C@@H](CCC(=O)NCCOCCOCC(=O)NCCOCCOCC(=O)N[C@@H](CCC(N)=O)C(=O)N[C@@H](CCCNC(=N)N)C(=O)N1CCC[C@H]1C(=O)N(C)[C@@H](CCCNC(=N)N)C(=O)N[C@@H](CC(C)C)C(=O)N[C@@H](CO)C(=O)N[C@@H](Cc1c[nH]cn1)C(=O)N[C@@H](CCCCN)C(=O)NCC(=O)N1CCC[C@H]1C(=O)N[C@@H](CCCC)C(=O)NCCC(=O)N[C@@H](Cc1ccc(Cl)cc1)C(=O)O)C(=O)O
B4: Apelin polypeptide SEQ ID NO: 477 (peptide)
peptide: Tridecanoyl-[γGlu][AEEA][AEEA]QRPELSHKGP[Nle]P[Phe(4-Cl)]-OH
SMILES: CCCCCCCCCCCCC(=O)N[C@@H](CCC(=O)NCCOCCOCC(=O)NCCOCCOCC(=O)N[C@@H](CCC(N)=O)C(=O)N[C@@H](CCCNC(=N)N)C(=O)N1CCC[C@H]1C(=O)N[C@@H](CCC(=O)O)C(=O)N[C@@H](CC(C)C)C(=O)N[C@@H](CO)C(=O)N[C@@H](Cc1c[nH]cn1)C(=O)N[C@@H](CCCCN)C(=O)NCC(=O)N1CCC[C@H]1C(=O)N[C@@H](CCCC)C(=O)N1CCC[C@H]1C(=O)N[C@@H](Cc1ccc(Cl)cc1)C(=O)O)C(=O)O
B5: Apelin polypeptide SEQ ID NO: 465 (peptide)
peptide: Tridecanoyl-[γGlu][AEEA][AEEA]QRPQLSHKGP[Nle]P[Phe(4-Cl)]-OH
SMILES: CCCCCCCCCCCCC(=O)N[C@@H](CCC(=O)NCCOCCOCC(=O)NCCOCCOCC(=O)N[C@@H](CCC(N)=O)C(=O)N[C@@H](CCCNC(=N)N)C(=O)N1CCC[C@H]1C(=O)N[C@@H](CCC(N)=O)C(=O)N[C@@H](CC(C)C)C(=O)N[C@@H](CO)C(=O)N[C@@H](Cc1c[nH]cn1)C(=O)N[C@@H](CCCCN)C(=O)NCC(=O)N1CCC[C@H]1C(=O)N[C@@H](CCCC)C(=O)N1CCC[C@H]1C(=O)N[C@@H](Cc1ccc(Cl)cc1)C(=O)O)C(=O)O
B6: Apelin polypeptide SEQ ID NO: 427 (peptide)
peptide: Tridecanoyl-[γGlu][AEEA][AEEA]QRPPLSHKGP[Nle]P[Phe(4-Cl)]-OH
SMILES: CCCCCCCCCCCCC(=O)N[C@@H](CCC(=O)NCCOCCOCC(=O)NCCOCCOCC(=O)N[C@@H](CCC(N)=O)C(=O)N[C@@H](CCCNC(=N)N)C(=O)N1CCC[C@H]1C(=O)N1CCC[C@H]1C(=O)N[C@@H](CC(C)C)C(=O)N[C@@H](CO)C(=O)N[C@@H](Cc1c[nH]cn1)C(=O)N[C@@H](CCCCN)C(=O)NCC(=O)N1CCC[C@H]1C(=O)N[C@@H](CCCC)C(=O)N1CCC[C@H]1C(=O)N[C@@H](Cc1ccc(Cl)cc1)C(=O)O)C(=O)O
B7: Apelin polypeptide SEQ ID NO: 526 (peptide)
peptide: Tridecanoyl-[γGlu][AEEA][AEEA][dQ]RPE[Cha]SHKG[Oic][Nle][Aib][Phe(4-Cl)]-OH
SMILES: CCCCCCCCCCCCC(=O)N[C@@H](CCC(=O)NCCOCCOCC(=O)NCCOCCOCC(=O)N[C@H](CCC(N)=O)C(=O)N[C@@H](CCCNC(=N)N)C(=O)N1CCC[C@H]1C(=O)N[C@@H](CCC(=O)O)C(=O)N[C@@H](CC1CCCCC1)C(=O)N[C@@H](CO)C(=O)N[C@@H](Cc1c[nH]cn1)C(=O)N[C@@H](CCCCN)C(=O)NCC(=O)N1[C@H](C(=O)N[C@@H](CCCC)C(=O)NC(C)(C)C(=O)N[C@@H](Cc2ccc(Cl)cc2)C(=O)O)C[C@@H]2CCCC[C@@H]21)C(=O)O
B8: Apelin polypeptide SEQ ID NO: 527 (peptide)
peptide: Tridecanoyl-[γGlu][AEEA][AEEA][dQ]RP[dE][Cha]SHKG[Oic][Nle][Aib][Phe(4-Cl)]-OH
SMILES: CCCCCCCCCCCCC(=O)N[C@@H](CCC(=O)NCCOCCOCC(=O)NCCOCCOCC(=O)N[C@H](CCC(N)=O)C(=O)N[C@@H](CCCNC(=N)N)C(=O)N1CCC[C@H]1C(=O)N[C@H](CCC(=O)O)C(=O)N[C@@H](CC1CCCCC1)C(=O)N[C@@H](CO)C(=O)N[C@@H](Cc1c[nH]cn1)C(=O)N[C@@H](CCCCN)C(=O)NCC(=O)N1[C@H](C(=O)N[C@@H](CCCC)C(=O)NC(C)(C)C(=O)N[C@@H](Cc2ccc(Cl)cc2)C(=O)O)C[C@@H]2CCCC[C@@H]21)C(=O)O
B9: Apelin polypeptide SEQ ID NO: 430 (peptide)
peptide: Tridecanoyl-[γGlu][AEEA][AEEA]Q[dR]P[dR][Cha]SHKG[Oic][Nle]P[Phe(4-Cl)]-OH
SMILES: CCCCCCCCCCCCC(=O)N[C@@H](CCC(=O)NCCOCCOCC(=O)NCCOCCOCC(=O)N[C@@H](CCC(N)=O)C(=O)N[C@H](CCCNC(=N)N)C(=O)N1CCC[C@H]1C(=O)N[C@H](CCCNC(=N)N)C(=O)N[C@@H](CC1CCCCC1)C(=O)N[C@@H](CO)C(=O)N[C@@H](Cc1c[nH]cn1)C(=O)N[C@@H](CCCCN)C(=O)NCC(=O)N1[C@H](C(=O)N[C@@H](CCCC)C(=O)N2CCC[C@H]2C(=O)N[C@@H](Cc2ccc(Cl)cc2)C(=O)O)C[C@@H]2CCCC[C@@H]21)C(=O)O
B10: Apelin polypeptide SEQ ID NO: 470 (peptide)
peptide: Tridecanoyl-[γGlu][AEEA][AEEA]QRP[NMeR]LSHKGP[Nle]P[2Nal]-OH
SMILES: CCCCCCCCCCCCC(=O)N[C@@H](CCC(=O)NCCOCCOCC(=O)NCCOCCOCC(=O)N[C@@H](CCC(N)=O)C(=O)N[C@@H](CCCNC(=N)N)C(=O)N1CCC[C@H]1C(=O)N(C)[C@@H](CCCNC(=N)N)C(=O)N[C@@H](CC(C)C)C(=O)N[C@@H](CO)C(=O)N[C@@H](Cc1c[nH]cn1)C(=O)N[C@@H](CCCCN)C(=O)NCC(=O)N1CCC[C@H]1C(=O)N[C@@H](CCCC)C(=O)N1CCC[C@H]1C(=O)N[C@@H](Cc1ccc2ccccc2c1)C(=O)O)C(=O)O
B11: Apelin polypeptide SEQ ID NO: 403 (peptide)
peptide: Tridecanoyl-[AC4Abu][AEEA][AEEA]QRP[NMeR]LSHKGP[Nle][2Nal]-OH
SMILES: CCCCCCCCCCCCC(=O)NCCC(C(=O)O)C(=O)NCCOCCOCC(=O)NCCOCCOCC(=O)N[C@@H](CCC(N)=O)C(=O)N[C@@H](CCCNC(=N)N)C(=O)N1CCC[C@H]1C(=O)N(C)[C@@H](CCCNC(=N)N)C(=O)N[C@@H](CC(C)C)C(=O)N[C@@H](CO)C(=O)N[C@@H](Cc1c[nH]cn1)C(=O)N[C@@H](CCCCN)C(=O)NCC(=O)N1CCC[C@H]1C(=O)N[C@@H](CCCC)C(=O)N[C@@H](Cc1ccc2ccccc2c1)C(=O)O

target: T1, human APJ receptor; test: cell-based or functional assay

Binder | EC50 Human APJ Receptor (GTPγS assay) [nM]
B1 | 0.461
B2 | 0.1
B3 | 0.0937
B4 | 0.423
XXXQRPRLSHKGPXPF ({TDA}[AC4Abu][Aeea][Aeea]QrP[NMehArg][BLeu]SHKGP[Nle]P[4-Cl-F]{COOH}) [Apelin polypeptide SEQ ID NO: 384] | 0.957
B5 | 0.0692
B6 | 0.17
XXXQRPRLSHKGPXPF ({TDA}[AC4Abu][Aeea][Aeea]QRP[NMeArg]LSHKGP[Nle][aMePro][4-Cl-F]{COOH}) [Apelin polypeptide SEQ ID NO: 401] | 0.0816
B7 | 2.02
B8 | 108
B9 | 1.22
B10 | 0.0379
XXXQRPRLSHKGPXXF ({TDA}[AC4Abu][Aeea][Aeea]QRP[NMeArg]LSHKGP[Nle][Pip][4-Cl-F]{COOH}) [Apelin polypeptide SEQ ID NO: 429] | 0.0664
B11 | 2.63

target: T2, rat APJ receptor; test: cell-based or functional assay

Binder | EC50 Rat APJ Receptor (GTPγS assay) [nM]
B1 | 1.15
B2 | 0.246
B3 | 0.157
B4 | 0.691
XXXQRPRLSHKGPXPF ({TDA}[AC4Abu][Aeea][Aeea]QrP[NMehArg][BLeu]SHKGP[Nle]P[4-Cl-F]{COOH}) [Apelin polypeptide SEQ ID NO: 384] | 4.35
B5 | 0.175
B6 | 0.313
XXXQRPRLSHKGPXPF ({TDA}[AC4Abu][Aeea][Aeea]QRP[NMeArg]LSHKGP[Nle][aMePro][4-Cl-F]{COOH}) [Apelin polypeptide SEQ ID NO: 401] | 0.351
B7 | 7.2
B8 | 227
B9 | 2.83
B10 | 0.149
XXXQRPRLSHKGPXXF ({TDA}[AC4Abu][Aeea][Aeea]QRP[NMeArg]LSHKGP[Nle][Pip][4-Cl-F]{COOH}) [Apelin polypeptide SEQ ID NO: 429] | 0.0935
B11 | 8.1
